Common to all, as to test: cell-based or functional assay
The target in assay [1] is NEK6 (h) (human) (UniProt Q9HC98).
Assay [2] addresses SAPK2a(T106M) (h) (human) (UniProt Q16539).
Assay [3] concerns the target CDK2/cyclinA (h) (human) (UniProt P24941).
Assay [4] concerns the target T1, Ret (V804L) (h) (human) (UniProt P07949).
T1 sequence (looked up): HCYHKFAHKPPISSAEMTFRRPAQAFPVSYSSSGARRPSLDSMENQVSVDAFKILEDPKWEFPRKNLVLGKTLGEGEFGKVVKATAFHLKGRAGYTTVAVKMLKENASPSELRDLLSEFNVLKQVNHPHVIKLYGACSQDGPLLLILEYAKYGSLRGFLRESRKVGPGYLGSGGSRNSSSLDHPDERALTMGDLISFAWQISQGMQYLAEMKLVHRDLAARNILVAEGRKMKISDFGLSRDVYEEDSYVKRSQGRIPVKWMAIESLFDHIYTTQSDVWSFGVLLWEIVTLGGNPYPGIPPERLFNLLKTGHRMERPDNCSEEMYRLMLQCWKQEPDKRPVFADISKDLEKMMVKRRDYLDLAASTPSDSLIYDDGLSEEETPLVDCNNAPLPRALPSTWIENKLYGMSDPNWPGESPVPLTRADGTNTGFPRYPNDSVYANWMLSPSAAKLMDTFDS

In assay [5] the target is BRK (h) (human) (UniProt Q13882).
In assay [6] the target is T2, SGK2 (h) (human) (UniProt Q9HBY8).
T2 sequence (looked up): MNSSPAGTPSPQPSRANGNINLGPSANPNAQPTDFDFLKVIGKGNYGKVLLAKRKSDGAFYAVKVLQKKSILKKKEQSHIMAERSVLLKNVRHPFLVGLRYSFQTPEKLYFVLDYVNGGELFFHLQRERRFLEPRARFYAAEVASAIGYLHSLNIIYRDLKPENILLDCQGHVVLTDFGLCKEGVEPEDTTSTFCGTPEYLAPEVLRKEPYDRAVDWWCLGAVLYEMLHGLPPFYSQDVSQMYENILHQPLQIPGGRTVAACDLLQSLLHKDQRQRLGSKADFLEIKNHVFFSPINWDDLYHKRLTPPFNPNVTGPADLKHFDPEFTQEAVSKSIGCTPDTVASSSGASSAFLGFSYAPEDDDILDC

The target in assay [7] is MRCKβ (h) (human) (UniProt Q9Y5S2).
For assay [8], the target named is Fgr (h) (human) (UniProt P09769).
For assay [9], the target named is NEK7 (h) (human) (UniProt Q8TDX7).
For assay [10], the target named is Abl (h) (human) (UniProt P00519).
The target of assay [11] is T3, EphA8 (h) (human) (UniProt P29322).
T3 sequence (looked up): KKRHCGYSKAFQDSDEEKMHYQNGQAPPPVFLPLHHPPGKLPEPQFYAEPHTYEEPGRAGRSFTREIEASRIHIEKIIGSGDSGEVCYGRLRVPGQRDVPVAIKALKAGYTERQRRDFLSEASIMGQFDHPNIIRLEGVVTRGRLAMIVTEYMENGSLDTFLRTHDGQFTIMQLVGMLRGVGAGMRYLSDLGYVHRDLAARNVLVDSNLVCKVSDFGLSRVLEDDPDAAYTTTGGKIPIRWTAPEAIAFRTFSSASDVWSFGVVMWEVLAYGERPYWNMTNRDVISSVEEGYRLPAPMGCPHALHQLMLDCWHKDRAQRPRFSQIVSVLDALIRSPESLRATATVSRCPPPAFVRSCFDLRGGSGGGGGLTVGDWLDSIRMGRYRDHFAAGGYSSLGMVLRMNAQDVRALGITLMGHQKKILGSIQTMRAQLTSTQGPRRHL

Assay [12] addresses ErbB4 (h) (human) (UniProt Q15303).
The target of assay [13] is T4, Fms(Y969C) (h) (human) (UniProt P07333).
T4 sequence (looked up): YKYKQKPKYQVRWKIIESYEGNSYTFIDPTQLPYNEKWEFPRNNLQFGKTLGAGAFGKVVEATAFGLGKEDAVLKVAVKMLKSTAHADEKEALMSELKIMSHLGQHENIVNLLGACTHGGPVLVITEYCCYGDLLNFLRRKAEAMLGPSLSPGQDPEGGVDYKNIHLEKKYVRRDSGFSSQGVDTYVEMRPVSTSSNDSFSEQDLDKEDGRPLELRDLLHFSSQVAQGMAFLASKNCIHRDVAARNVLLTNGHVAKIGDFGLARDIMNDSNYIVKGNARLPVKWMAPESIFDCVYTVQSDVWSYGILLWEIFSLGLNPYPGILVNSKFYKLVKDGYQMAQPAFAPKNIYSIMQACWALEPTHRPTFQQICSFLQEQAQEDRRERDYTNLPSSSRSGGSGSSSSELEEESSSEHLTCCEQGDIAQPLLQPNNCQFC

Assay [14] deals with Pim-2 (h) (human) (UniProt Q9P1W9).
Assay [15] has as its target Flt4 (h) (human) (UniProt P35916).
The target of assay [16] is CSK (h) (human) (UniProt P41240).
Assay [17] concerns the target PKA (h) (human) (UniProt P17612).
Assay [18] addresses T5, DRAK1 (h) (human) (UniProt Q9UEE5).
T5 sequence (looked up): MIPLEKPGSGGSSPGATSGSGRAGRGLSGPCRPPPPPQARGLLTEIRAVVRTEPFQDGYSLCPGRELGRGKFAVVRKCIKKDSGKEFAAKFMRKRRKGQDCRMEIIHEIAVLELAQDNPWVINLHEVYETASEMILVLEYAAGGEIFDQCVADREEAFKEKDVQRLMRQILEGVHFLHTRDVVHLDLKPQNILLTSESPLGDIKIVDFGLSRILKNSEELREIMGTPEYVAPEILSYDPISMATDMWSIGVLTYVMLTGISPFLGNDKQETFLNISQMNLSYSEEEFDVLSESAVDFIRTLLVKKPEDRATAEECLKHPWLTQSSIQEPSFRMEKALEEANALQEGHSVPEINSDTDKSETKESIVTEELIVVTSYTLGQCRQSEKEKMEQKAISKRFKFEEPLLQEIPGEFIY

Assay [19] has as its target ROCK-I (h) (human) (UniProt Q13464).
Assay [20] has as its target CDK7/cyclinH/MAT1 (h) (human) (UniProt P50613).

Sequence of CDK7/cyclinH/MAT1 (h) (human) (P50613 whole entry, chain 1 of 3): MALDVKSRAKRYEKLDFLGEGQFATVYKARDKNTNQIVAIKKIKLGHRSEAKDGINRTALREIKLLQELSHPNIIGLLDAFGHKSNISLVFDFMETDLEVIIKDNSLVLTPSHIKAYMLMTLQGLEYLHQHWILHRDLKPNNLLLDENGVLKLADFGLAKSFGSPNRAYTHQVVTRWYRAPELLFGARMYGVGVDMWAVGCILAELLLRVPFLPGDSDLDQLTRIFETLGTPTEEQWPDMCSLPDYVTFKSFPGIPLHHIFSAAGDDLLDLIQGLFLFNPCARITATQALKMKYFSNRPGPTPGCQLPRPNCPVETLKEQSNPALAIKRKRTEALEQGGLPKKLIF
Sequence of CDK7/cyclinH/MAT1 (h) (human) (P51946 whole entry, chain 2 of 3, further chain): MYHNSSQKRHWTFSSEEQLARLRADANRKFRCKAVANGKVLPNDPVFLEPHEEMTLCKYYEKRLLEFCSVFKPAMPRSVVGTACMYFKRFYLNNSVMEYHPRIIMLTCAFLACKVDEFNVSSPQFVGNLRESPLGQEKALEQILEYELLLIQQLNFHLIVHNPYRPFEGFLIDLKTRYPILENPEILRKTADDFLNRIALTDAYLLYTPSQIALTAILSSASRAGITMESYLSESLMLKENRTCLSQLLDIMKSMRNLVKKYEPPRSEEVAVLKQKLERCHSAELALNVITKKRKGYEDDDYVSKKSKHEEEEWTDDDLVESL
Sequence of CDK7/cyclinH/MAT1 (h) (human) (P51948 whole entry, chain 3 of 3, further chain): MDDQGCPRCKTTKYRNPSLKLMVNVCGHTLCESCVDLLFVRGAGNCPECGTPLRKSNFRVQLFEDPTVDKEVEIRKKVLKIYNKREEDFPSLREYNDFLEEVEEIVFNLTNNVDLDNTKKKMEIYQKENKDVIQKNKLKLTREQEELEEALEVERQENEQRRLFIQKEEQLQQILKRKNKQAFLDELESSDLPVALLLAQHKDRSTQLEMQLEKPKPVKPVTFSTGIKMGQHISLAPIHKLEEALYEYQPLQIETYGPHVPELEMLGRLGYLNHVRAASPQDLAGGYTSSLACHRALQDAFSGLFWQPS
Sequence of ErbB4 (h) (human) (Q15303 706-991 limits assumed): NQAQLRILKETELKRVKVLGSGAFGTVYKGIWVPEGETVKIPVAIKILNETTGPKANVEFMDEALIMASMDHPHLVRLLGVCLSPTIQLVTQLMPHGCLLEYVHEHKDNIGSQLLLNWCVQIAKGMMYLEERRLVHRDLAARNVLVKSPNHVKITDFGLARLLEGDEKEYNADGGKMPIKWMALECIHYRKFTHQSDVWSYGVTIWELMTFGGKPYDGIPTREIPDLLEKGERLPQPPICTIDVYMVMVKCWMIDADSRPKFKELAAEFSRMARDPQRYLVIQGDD
Sequence of MRCKβ (h) (human) (Q9Y5S2 1-473 limits assumed): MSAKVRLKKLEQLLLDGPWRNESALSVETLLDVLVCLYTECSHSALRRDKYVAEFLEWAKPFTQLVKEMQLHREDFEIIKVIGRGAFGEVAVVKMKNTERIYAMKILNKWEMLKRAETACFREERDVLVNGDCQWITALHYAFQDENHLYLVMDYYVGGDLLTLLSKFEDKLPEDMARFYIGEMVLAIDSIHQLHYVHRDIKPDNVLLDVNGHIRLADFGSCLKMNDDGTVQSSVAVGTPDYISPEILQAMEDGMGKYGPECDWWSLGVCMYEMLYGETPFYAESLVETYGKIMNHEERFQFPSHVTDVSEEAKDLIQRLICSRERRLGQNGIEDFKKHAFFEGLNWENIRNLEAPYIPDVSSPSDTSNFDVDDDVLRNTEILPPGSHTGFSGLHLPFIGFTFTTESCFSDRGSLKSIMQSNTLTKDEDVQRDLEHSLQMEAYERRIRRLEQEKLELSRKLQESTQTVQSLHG
Sequence of SAPK2a(T106M) (h) (human) (Q16539 whole entry T106M): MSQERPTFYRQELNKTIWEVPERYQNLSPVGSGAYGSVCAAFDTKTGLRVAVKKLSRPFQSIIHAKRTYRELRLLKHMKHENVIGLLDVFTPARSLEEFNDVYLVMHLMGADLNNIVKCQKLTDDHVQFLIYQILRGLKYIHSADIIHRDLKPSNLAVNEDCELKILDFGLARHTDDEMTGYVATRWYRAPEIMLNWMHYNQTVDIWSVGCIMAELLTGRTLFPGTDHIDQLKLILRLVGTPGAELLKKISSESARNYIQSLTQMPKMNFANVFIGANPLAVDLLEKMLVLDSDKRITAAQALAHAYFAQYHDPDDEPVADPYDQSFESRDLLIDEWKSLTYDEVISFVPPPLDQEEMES
Sequence of Abl (h) (human) (P00519 27-1130 limits assumed): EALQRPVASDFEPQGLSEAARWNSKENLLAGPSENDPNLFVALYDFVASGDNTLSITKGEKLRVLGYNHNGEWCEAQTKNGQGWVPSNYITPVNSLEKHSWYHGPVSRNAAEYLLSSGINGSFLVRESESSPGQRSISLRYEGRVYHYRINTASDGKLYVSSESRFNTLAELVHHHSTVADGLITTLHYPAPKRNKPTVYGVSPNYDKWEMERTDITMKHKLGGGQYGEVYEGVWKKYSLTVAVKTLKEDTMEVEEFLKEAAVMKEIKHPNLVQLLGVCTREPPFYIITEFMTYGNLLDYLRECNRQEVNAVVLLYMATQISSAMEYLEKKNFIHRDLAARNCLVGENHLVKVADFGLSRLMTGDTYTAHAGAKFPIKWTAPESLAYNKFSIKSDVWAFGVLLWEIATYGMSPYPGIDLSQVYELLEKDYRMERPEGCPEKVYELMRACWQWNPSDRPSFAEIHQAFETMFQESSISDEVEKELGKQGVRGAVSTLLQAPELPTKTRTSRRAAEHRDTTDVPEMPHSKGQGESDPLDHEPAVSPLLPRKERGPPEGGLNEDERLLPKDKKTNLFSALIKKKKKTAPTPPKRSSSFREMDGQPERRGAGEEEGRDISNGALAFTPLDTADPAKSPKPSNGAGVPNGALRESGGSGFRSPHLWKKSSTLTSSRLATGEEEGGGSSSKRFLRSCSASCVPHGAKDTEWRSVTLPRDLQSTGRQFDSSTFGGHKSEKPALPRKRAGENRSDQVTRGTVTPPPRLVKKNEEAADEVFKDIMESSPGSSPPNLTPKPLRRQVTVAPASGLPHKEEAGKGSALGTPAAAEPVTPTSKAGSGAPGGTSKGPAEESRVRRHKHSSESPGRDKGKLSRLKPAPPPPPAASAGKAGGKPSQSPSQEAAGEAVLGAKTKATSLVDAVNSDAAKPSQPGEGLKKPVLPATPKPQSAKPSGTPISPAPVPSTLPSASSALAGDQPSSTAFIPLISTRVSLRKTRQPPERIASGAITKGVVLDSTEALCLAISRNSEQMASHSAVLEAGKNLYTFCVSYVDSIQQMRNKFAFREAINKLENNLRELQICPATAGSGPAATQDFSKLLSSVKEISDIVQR
Sequence of Flt4 (h) (human) (P35916 800-1363 limits assumed): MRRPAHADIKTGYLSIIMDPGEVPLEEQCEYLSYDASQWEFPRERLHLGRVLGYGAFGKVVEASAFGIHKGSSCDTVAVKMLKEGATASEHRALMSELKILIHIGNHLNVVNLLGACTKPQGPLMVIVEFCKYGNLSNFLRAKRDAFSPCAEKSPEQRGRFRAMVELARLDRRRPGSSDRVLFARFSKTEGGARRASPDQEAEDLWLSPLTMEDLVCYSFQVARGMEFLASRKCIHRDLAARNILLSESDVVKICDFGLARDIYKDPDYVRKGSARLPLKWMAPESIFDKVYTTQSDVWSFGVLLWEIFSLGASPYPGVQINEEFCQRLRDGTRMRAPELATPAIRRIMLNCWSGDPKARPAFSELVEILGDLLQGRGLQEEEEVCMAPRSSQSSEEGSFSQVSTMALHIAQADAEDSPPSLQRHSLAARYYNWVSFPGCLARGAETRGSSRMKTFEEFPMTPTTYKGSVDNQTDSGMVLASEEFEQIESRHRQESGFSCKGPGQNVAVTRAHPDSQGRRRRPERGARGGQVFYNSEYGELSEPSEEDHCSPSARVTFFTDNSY

As to MMI-0300 (peptide), the % activity at 100 µM in assay [1] is 82%; in assay [2], 97%; in assay [3] it was 86%; in assay [4], 79%; in assay [5], 35%; in [6] it was 56%. Besides, the % activity at 100 µM amounted to 83% in [7]; 60% in assay [8]; 84% in [9]; 69% in assay [10]; 93% in [11]; 40% in [12]. Also, the % activity at 100 µM in assay [13] was found to be 72%; in [14] it was 76%; in assay [15], 83%; in assay [16] it was 49%; in [17], 119%; in assay [18], 14%. The % activity at 100 µM in assay [19] stood at 79%; in assay [20], 65%.

(Values after patent US20160136234A1.)
